Reference: patent US20200087681A1

How the values were obtained:
CD19 = CD19 (UniProt P15391); experiment: cell-based or functional assay
[1] = target: human serum immunoglobulin (IgG) (human); experiment: flow cytometry of cFcR-transduced human T cells incubated with human serum IgG, co-stained for CD16 and IgG

UniProt P15391, sequence (P15391 20-556 limits assumed): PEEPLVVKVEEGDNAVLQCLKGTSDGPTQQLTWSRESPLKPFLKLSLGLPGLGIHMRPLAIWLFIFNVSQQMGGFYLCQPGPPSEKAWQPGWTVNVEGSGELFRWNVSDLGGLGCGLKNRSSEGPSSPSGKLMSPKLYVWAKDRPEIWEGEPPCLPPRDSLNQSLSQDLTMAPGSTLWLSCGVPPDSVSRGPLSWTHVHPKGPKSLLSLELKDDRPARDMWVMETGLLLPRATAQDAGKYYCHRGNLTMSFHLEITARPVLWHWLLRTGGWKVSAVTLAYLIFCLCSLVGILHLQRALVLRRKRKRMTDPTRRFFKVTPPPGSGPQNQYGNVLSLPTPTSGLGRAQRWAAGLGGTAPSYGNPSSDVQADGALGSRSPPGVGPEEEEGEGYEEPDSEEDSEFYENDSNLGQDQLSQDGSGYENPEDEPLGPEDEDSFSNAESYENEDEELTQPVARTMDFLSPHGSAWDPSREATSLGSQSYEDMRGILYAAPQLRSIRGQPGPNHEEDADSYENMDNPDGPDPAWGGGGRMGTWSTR

| degranulation assay, CD107a upregulation on TCR+ CAR19+ T cells after 4 hr with CD19+ Daudi (CD19) [%] | degranulation assay, CD107a upregulation on TCR- CAR19+ T cells after 4 hr with CD19+ Daudi (CD19) [%] | percent of cells with CD16 and IgG co-staining [1] [%] | Substance |
| --- | --- | --- | --- |
| 53 | 57 |  | CD3z-41BB-CD8-CAR19scFv (4G7) chimeric antigen receptor (CAR19) (from UniProt P01732 138-206; Q07011 214-255; P20963 52-164) |
|  |  | 7.5 | chimeric FcR (cFcR) (from UniProt P08637 17-208; P01732 138-206; Q07011 214-255; P20963 52-164) (receptor) |
